Values of other authors in PMC8920573.

Molecular target: SARS-CoV main protease main protease (Severe acute respiratory syndrome coronavirus) (UniProt P0C6X7)

SARS-CoV main protease main protease (from UniProt P0C6X7)
Kd: 2500 nM
